Results reported in IntAct's records for PubMed 17923090.

B1: Interferon regulatory factor 9 (Homo sapiens), Q00978 (parent)
chain: MASGRARCTRKLRNWVVEQVESGQFPGVCWDDTAKTMFRIPWKHAGKQDFREDQDAAFFKAWAIFKGKYKEGDTGGPAVWKTRLRCALNKSSEFKEVPERGRMDVAEPYKVYQLLPPGIVSGQPGTQKVPSKRQHSSVSSERKEEEDAMQNCTLSPSVLQDSLNNEEEGASGGAVHSDIGSSSSSSSPEPQEVTDTTEAPFQGDQRSLEFLLPPEPDYSLLLTFIYNGRVVGEAQVQSLDCRLVAEPSGSESSMEQVLFPKPGPLEPTQRLLSQLERGILVASNPRGLFVQRLCPIPISWNAPQAPPGPGPHLLPSNECVELFRTAYFCRDLVRYFQGLGPPPKFQVTLNFWEESHGSSHTPQNLITVKMEQAFARYLLEQTPEQQAAILSLV
partner: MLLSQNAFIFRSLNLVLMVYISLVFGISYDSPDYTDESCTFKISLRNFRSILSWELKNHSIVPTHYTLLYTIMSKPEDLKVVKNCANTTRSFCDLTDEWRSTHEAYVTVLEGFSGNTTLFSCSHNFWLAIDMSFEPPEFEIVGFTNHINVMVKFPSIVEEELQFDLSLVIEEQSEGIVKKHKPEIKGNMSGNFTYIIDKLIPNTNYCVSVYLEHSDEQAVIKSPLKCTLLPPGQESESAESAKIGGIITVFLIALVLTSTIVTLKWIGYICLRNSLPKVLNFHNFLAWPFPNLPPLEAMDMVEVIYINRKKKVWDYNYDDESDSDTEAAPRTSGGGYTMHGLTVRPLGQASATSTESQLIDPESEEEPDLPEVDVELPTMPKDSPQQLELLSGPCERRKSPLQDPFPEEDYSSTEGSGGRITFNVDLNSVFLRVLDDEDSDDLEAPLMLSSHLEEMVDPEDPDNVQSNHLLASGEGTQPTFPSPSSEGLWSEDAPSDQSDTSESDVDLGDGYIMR
B2: Interferon alpha/beta receptor 2 (Homo sapiens), P48551 (parent)
chain: B1 partner
partner: B1 chain
B3: Interferon alpha/beta receptor 2 (Homo sapiens), P48551 (parent)
chain: B1 partner

Variants of: B1
Conditions: with inar2_human IFNAR2, P48551

| effect of a mutation on the interaction | Variant |
| --- | --- |
| decreasing interaction | R292Q |

Variants of: B2
Conditions: with irf9_human IRF9, Q00978

| effect of a mutation on the interaction | Variant |
| --- | --- |
| decreasing interaction | K399A;S400A |
| increasing interaction | S400A |
| decreasing interaction | K399A |

Variants of: B3
Conditions: with cbp_human CREBBP

| effect of a mutation on the interaction | Variant |
| --- | --- |
| decreasing interaction | S384A |
| decreasing interaction | S364A |
